Measurements as given in patent US20040043959A1, “Combination therapies for treating methylthioadenosine phosphorylase deficient cells” (priority 2002, published 2004).

Tests used:
Experiment in all cases: MTAP substrate assay, coupled spectrophotometric (adenine, xanthine oxidase)
Format in all cases: biochemical, human
Details in all cases: other: substrate of MTAP, 37° C.
[1] = substrate: Nc1ncnc2c1ncn2[C@@H]1O[C@H](CSc2ccc3ccccc3n2)[C@@H](O)[C@H]1O
Protocol: (§1) An enzymatic assay to determine the activity of MTAP against a given substrate was performed. Human MTAP containing an N-terminal six-histidine tag was expressed in E. coli BL21 DE3 cells. The protein was purified to homogeneity by Ni2+ affinity chromatography. Enzymatic activity was measured using a coupled spectrophotometric assay designed to monitor the reaction product adenine (Savarese, T. M., Crabtree, G. W., and Parks, R. E. Jr., (1980) Biochem. Pharmacol. 30, 189-199). Various concentrations of the indicated 5′-deoxymethylthio adenosine (MTA) or substrate were incubated in assay buffer (40 mM potassium phosphate buffer, 1 mM, and DTT 0.8 units/ml xanthine oxidase coupling enzyme) for 5 minutes at 37° C. The reaction was initiated by the addition of MTAP. The exact concentration of enzyme used varied for each substrate tested and ranged from 2 nM to 500 nM. Activity as a function of enzyme concentration was determined for each substrate tested to ensure that the appropriate enzyme concentration was used. Activity was detected by continuous monitoring of absorbance at 305 nm for 10 minutes (ΔE=15,500 M^−1).
(§2) Library compounds (10 and 50 uM) were tested using the assay described above with 2 nM MTAP enzyme. The resultant initial velocities are reported as a percentage of the initial velocity observed when MTA is the substrate. MTA controls, 10 and 50 uM concentrations, were run on each plate alongside the library compounds.

[2] = substrate: Nc1ncnc2c1ncn2[C@@H]1O[C@H](CNCCO)[C@@H](O)[C@H]1O
Protocol: as §1, §2

[3] = substrate: CCOC(=O)CCSC[C@H]1O[C@@H](n2cnc3c(N)ncnc32)[C@H](O)[C@@H]1O
Protocol: as §1, §2

[4] = substrate: COc1cccc(SC[C@H]2O[C@@H](n3cnc4c(N)ncnc43)[C@H](O)[C@@H]2O)c1
Protocol: as §1, §2

[5] = substrate: CSC[C@H]1O[C@@H](n2cnc3c(N)ncnc32)[C@@H](O)[C@@H]1O
Protocol: as §1, §2

[6] = substrate: CCSC[C@H]1O[C@@H](n2cnc3c(N)ncnc32)[C@H](O)[C@@H]1O
Protocol: as §1, §2

[7] = substrate: Cc1cccc(CSC[C@H]2O[C@@H](n3cnc4c(N)ncnc43)[C@H](O)[C@@H]2O)c1
Protocol: as §1, §2

[8] = substrate: Nc1ncnc2c1ncn2[C@@H]1O[C@H](CSC2CCCC2)[C@@H](O)[C@H]1O
Protocol: as §1, §2

[9] = substrate: Nc1ncnc2c1ncn2[C@@H]1O[C@H](CSc2ccncc2)[C@@H](O)[C@H]1O
Protocol: as §1, §2

[10] = substrate: Nc1ncnc2c1ncn2[C@@H]1O[C@H](CSCc2cccs2)[C@@H](O)[C@H]1O
Protocol: as §1, §2

[11] = substrate: COc1ccc(OC[C@H]2O[C@@H](n3cnc4c(N)ncnc43)[C@H](O)[C@@H]2O)cc1
Protocol: as §1, §2

[12] = substrate: CCCCSC[C@H]1O[C@@H](n2cnc3c(N)ncnc32)[C@H](O)[C@@H]1O
Protocol: as §1, §2

[13] = substrate: Nc1ncnc2c1ncn2[C@@H]1O[C@H](CSCCc2ccccc2)[C@@H](O)[C@H]1O
Protocol: as §1, §2

[14] = substrate: CSC[C@H]1O[C@@H](n2cnc3c(N)ncnc32)C[C@@H]1O
Protocol: as §1, §2

[15] = substrate: Cc1ccc(SC[C@H]2O[C@@H](n3cnc4c(N)ncnc43)[C@H](O)[C@@H]2O)cc1
Protocol: as §1, §2

[16] = substrate: COC[C@H]1O[C@@H](n2cnc3c(N)ncnc32)[C@H](O)[C@@H]1O
Protocol: as §1, §2

[17] = substrate: Cc1cccc(SC[C@H]2O[C@@H](n3cnc4c(N)ncnc43)[C@H](O)[C@@H]2O)c1
Protocol: as §1, §2

[18] = substrate: NCCSC[C@H]1O[C@@H](n2cnc3c(N)ncnc32)[C@H](O)[C@@H]1O
Protocol: as §1, §2

[19] = substrate: Nc1ncnc2c1ncn2[C@@H]1O[C@H](CSc2ncc[nH]2)[C@@H](O)[C@H]1O
Protocol: as §1, §2

B1: Human MTAP (Homo sapiens) (protein)
chain: MASGTTTTAVKIGIIGGTGLDDPEILEGRTEKYVDTPFGKPSDALILGKIKNVDCVLLARHGRQHTIMPSKVNYQANIWALKEEGCTHVIVTTACGSLREEIQPGDIVIIDQFIDRTTMRPQSFYDGSHSCARGVCHIPMAEPFCPKTREVLIETAKKLGLRCHSKGTMVTIEGPRFSSRAESFMFRTWGADVINMTTVPEVVLAKEAGICYASIAMATDYDCWKEHEEAVSVDRVLKTLKENANKAKSLLLTTIPQIGSTEWSETLHNLKNMAQFSVLLPRH
notes: six-histidine tag (His6) (N); made in house; host or cells: E. coli BL21 DE3
B1 gave a Km [1] of 6.9 µM, a kcat [1] of 3.16 s⁻¹ and a Km [2] of 758 µM. It also gave a kcat [2] of 0.029 s⁻¹, a Km [3] of 4.3 µM and a kcat [3] of 1.54 s⁻¹. For the same protein, the Km [4] was 2.2 µM, the kcat [4] was 1.4 s⁻¹ and the Km [5] was 106 µM. The kcat [5] was 0.006 s⁻¹, the Km [6] was 1.8 µM and the kcat [6] was 2.9 s⁻¹. For the same protein, the Km [7] was 4 µM, the kcat [7] was 1.82 s⁻¹ and the Km [8] was 3.2 µM. It also gave a kcat [8] of 1.5 s⁻¹, a Km [9] of 0.88 µM and a kcat [9] of 0.23 s⁻¹. The Km [10] was 6 µM, the kcat [10] was 4.6 s⁻¹ and the Km [11] was 10 µM. It also gave a kcat [11] of 0.54 s⁻¹, a Km [12] of 3.3 µM and a kcat [12] of 5.4 s⁻¹. It also gave a Km [13] of 5 µM, a kcat [13] of 2.14 s⁻¹ and a Km [14] of 3.3 µM. For the same protein, the kcat [14] was 0.76 s⁻¹, the Km [15] was 1.5 µM and the kcat [15] was 1.44 s⁻¹. It also gave a Km [16] of 250 µM, a kcat [16] of 0.006 s⁻¹ and a Km [17] of 2 µM. For the same protein, the kcat [17] was 2.4 s⁻¹, the Km [18] was 390 µM and the kcat [18] was 0.141 s⁻¹. For the same protein, the Km [19] was 9 µM and the kcat [19] was 3.8 s⁻¹.
